Laboratory results taken from PMC12455665, “Convergent construction of N-terminally modified CCL5 chemokines for photoaffinity receptor pull-down using cross-aldol bioconjugations” (RSC Chemical Biology, 2025).

Biological target: T1, CCR5 chemokine receptor on CHO-CCR5 cells (UniProt P51681 1-352)
T1 construct: also called the receptor; source: Chinese hamster ovary cell line (CHO), stably expressing CCR5
Experiment: not stated; receptor binding of CCL5 P2G against wild-type CCL5 (Fig. S14); methods in the SI, not shown

T1 sequence (P51681 whole entry): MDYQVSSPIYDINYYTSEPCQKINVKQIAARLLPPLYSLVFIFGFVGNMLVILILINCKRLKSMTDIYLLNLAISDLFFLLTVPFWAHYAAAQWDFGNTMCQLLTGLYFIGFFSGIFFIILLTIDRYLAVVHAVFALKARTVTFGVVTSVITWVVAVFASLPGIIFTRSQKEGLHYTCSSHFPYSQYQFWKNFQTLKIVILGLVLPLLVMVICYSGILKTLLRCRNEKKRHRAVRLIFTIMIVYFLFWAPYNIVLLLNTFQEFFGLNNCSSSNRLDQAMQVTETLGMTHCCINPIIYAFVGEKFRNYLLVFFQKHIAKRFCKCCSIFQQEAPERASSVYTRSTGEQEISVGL

B1: CCL5 P2G 1 (ligand, human, UniProt P13501 24-91, looked up)
chain: SGYSSDTTPCCFAYIARPLPRAHIKEYFYTSGKCSNPAVVFVTRKNRQVCANPEKKWVREYINSLEMS
notes: Human C–C chemokine ligand 5 (CCL5, RANTES), with its native N-terminal serine after traceless SUMO cleavage, point mutant P2G; also called CCL5 point mutant (P2G); CCL5 P2G variant; source: E. coli SHuffle LysY, purified (His-SUMO tag capture, SUMO protease cleavage); not shown: His, N-terminal, cleaved; SUMO, N-terminal, cleaved
- fold reduction of binding against wild-type CCL5: 3 fold
